Assay results: US20250281611A1 (BIOSCEPTRE AUST, published 2025)

T1: CD19 (UniProt P15391 20-556, limits assumed)
T1 construct: whole, on cells; also called CD19 on JeKo-1
T1 sequence (looked up): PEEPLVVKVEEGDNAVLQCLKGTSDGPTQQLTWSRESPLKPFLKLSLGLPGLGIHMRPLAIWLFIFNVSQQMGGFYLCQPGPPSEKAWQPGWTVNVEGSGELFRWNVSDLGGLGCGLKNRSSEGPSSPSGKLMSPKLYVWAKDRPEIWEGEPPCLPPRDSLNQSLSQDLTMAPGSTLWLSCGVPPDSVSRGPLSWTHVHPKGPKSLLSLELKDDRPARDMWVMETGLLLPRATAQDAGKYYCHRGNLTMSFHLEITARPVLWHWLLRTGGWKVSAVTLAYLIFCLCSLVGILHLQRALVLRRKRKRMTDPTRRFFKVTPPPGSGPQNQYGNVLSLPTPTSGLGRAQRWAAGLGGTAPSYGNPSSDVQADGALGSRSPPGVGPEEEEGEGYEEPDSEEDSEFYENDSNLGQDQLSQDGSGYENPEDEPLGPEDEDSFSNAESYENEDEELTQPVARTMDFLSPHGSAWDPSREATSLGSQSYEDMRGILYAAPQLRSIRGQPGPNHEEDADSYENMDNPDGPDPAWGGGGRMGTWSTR


Tests used:
CD19 [1] = target: T1, CD19; experiment: flow cytometry, JeKo-1 cells, BIL03s-AF647 detection, MFI over no-bridge control
Description: (§1) JeKo-1 cells were incubated with different CD19 BRiDGE variants at saturating concentrations. […] The MFI intensity correlates with the number of secondary bound antibodies bound to the CD19 BRiDGE variants that are only detected if they are bound to the JeKo-1 cells. MFI: median fluorescence intensity. BLitz: Bio-Layer interferometry (BLI) technology using HIS-tag identification tips. […] The higher the MFIR, the stronger the binding.

nfP2X7 CAR 1 [2] = target: T2, nfP2X7 CAR 1; experiment: flow cytometry, nfP2X7 CAR 1 T cells (EGFR+ gate), anti-His-FITC detection
T2 construct: CAR-positive cells gated by the co-expressed EGFR marker; also called nfP2X7 targeted CAR; nfP2X7 CAR on EGFR+ T cells

CD19 [3] = target: T1, CD19; experiment: flow cytometry, JeKo-1 cells, bridge at saturating conc., anti-His-FITC detection
Description: as §1

CD19 [4] = target: T1, CD19; experiment: flow cytometry, JeKo-1 cells, bridge at saturating conc., BIL03s-AF647 detection
Description: as §1

nfP2X7 CAR 1 [5] = target: T2, nfP2X7 CAR 1; experiment: flow cytometry, anti-His-FITC, MFI on EGFR+ (CAR+) over EGFR- (CAR-) T cells
In short: (§2)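 CAR T cells incubated with BRiDGE variants at saturating concentrations; bound BRiDGE detected with anti-His-FITC by flow cytometry. EGFR marks CAR expression. Value is median fluorescence intensity on EGFR+ (CAR+) cells divided by that on EGFR− (CAR−) cells.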

CD19 [6] = target: T1, CD19; experiment: flow cytometry, JeKo-1 cells, anti-His-FITC detection, MFI over no-bridge control
Description: as §1

nfP2X7 CAR 1 [7] = target: T2, nfP2X7 CAR 1; experiment: flow cytometry, anti-His-FITC, MFI on EGFR+ (CAR+) T cells over background 0.44
In short: as §2

| MFIR BIL03 AF647 (CD19 [1]) | MFI HisTag FITC in EGFR+ Population (nfP2X7 CAR 1 [2]) | MFI HisTag FITC (CD19 [3]) | MFI Bil03 AF647 (CD19 [4]) | HisTag MFI Ratio of EGFR+/EGFR- (nfP2X7 CAR 1 [5]) | MFIR HisTag FITC (CD19 [6]) | HisTag MFI Ratio (background 0.44) (nfP2X7 CAR 1 [7]) | Binder |
| --- | --- | --- | --- | --- | --- | --- | --- |
| 16.2 | 2.25 | 2.33 | 7.44 | 4.2 | 3.03 | 5.1 | CD19 BRIDGE variant B29 (Fab) heavy: EVQLVESGGGLVKPGGSLKLSCAASGYTFTSYVMHWVRQAPGKGLEWIGYINPYNDGTKYNEKFQGRVTISSDKSISTAYMELSSLRSEDTAMYYCARGTYYYGTRVFDYWGQGTLVTVSSASTKGPSVFPLAPSSKSTSGGTAALGCLVKDYFPEPVTVSWNSGALTSGVHTFPAVLQSSGLYSLSSVVTVPSSSLGTQTYICNVNHKPSNTKVDKKVEPKSCHHHHHH light: DFPGHNYTTRNILPGLNITSTFHKTSGSGKGSEPKSSDKTHTGSDIVMTQSPATLSLSPGERATLSCRSSKSLQNVNGNTYLYWFQQKPGQSPQLLIYRMSNLNSGVPDRFSGSGSGTEFTLTISSLEPEDFAVYYCMQHLEYPITFGAGTKLEIKRTVAAPSVFIFPPSDEQLKSGTASVVCLLNNFYPREAKVQWKVDNALQSGNSQESVTEQDSKDSTYSLSSTLTLSKADYEKHKVYACEVTHQGLSSPVTKSFNRGEC |
| 20.9 | 2.35 | 2.5 | 9.6 | 4.1 | 3.25 | 5.3 | CD19 BRIDGE variant B27 (Fab) heavy: EVQLVESGGGLVKPGGSLKLSCAASGYTFTSYVMHWVRQAPGKGLEWIGYINPYNDGTKYNEKFQGRVTISSDKSISTAYMELSSLRSEDTAMYYCARGTYYYGTRVFDYWGQGTLVTVSSASTKGPSVFPLAPSSKSTSGGTAALGCLVKDYFPEPVTVSWNSGALTSGVHTFPAVLQSSGLYSLSSVVTVPSSSLGTQTYICNVNHKPSNTKVDKKVEPKSCHHHHHH light: DFPGHNYTTRNILPGLNITSGGGGSEPKSSDKTHTGSDIVMTQSPATLSLSPGERATLSCRSSKSLQNVNGNTYLYWFQQKPGQSPQLLIYRMSNLNSGVPDRFSGSGSGTEFTLTISSLEPEDFAVYYCMQHLEYPITFGAGTKLEIKRTVAAPSVFIFPPSDEQLKSGTASVVCLLNNFYPREAKVQWKVDNALQSGNSQESVTEQDSKDSTYSLSSTLTLSKADYEKHKVYACEVTHQGLSSPVTKSFNRGEC |
| 16.3 | 2.12 | 2.35 | 7.48 | 4.3 | 3.05 | 4.8 | CD19 BRIDGE variant B30 (Fab) heavy: EVQLVESGGGLVKPGGSLKLSCAASGYTFTSYVMHWVRQAPGKGLEWIGYINPYNDGTKYNEKFQGRVTISSDKSISTAYMELSSLRSEDTAMYYCARGTYYYGTRVFDYWGQGTLVTVSSASTKGPSVFPLAPSSKSTSGGTAALGCLVKDYFPEPVTVSWNSGALTSGVHTFPAVLQSSGLYSLSSVVTVPSSSLGTQTYICNVNHKPSNTKVDKKVEPKSCHHHHHH light: DFPGHNYTTRNILPGLNITSTFHKTSGSGKGGGGSEPKSSDKTHTGSDIVMTQSPATLSLSPGERATLSCRSSKSLQNVNGNTYLYWFQQKPGQSPQLLIYRMSNLNSGVPDRFSGSGSGTEFTLTISSLEPEDFAVYYCMQHLEYPITFGAGTKLEIKRTVAAPSVFIFPPSDEQLKSGTASVVCLLNNFYPREAKVQWKVDNALQSGNSQESVTEQDSKDSTYSLSSTLTLSKADYEKHKVYACEVTHQGLSSPVTKSFNRGEC |
| 12 | 2.17 | 2.36 | 5.53 | 4.2 | 3.06 | 4.9 | CD19 BRIDGE variant B26 (Fab, V domains shown) VH: EVQLVESGGGLVKPGGSLKLSCAASGYTFTSYVMHWVRQAPGKGLEWIGYINPYNDGTKYNEKFQGRVTISSDKSISTAYMELSSLRSEDTAMYYCARGTYYYGTRVFDYWGQGTLVTVSS VL: DIVMTQSPATLSLSPGERATLSCRSSKSLQNVNGNTYLYWFQQKPGQSPQLLIYRMSNLNSGVPDRFSGSGSGTEFTLTISSLEPEDFAVYYCMQHLEYPITFGAGTKLEIKR |

Second part, the binder before the results:

| Binder | MFIR BIL03 AF647 (CD19 [1]) | MFI HisTag FITC in EGFR+ Population (nfP2X7 CAR 1 [2]) | MFI HisTag FITC (CD19 [3]) | MFI Bil03 AF647 (CD19 [4]) | HisTag MFI Ratio of EGFR+/EGFR- (nfP2X7 CAR 1 [5]) | MFIR HisTag FITC (CD19 [6]) | HisTag MFI Ratio (background 0.44) (nfP2X7 CAR 1 [7]) |
| --- | --- | --- | --- | --- | --- | --- | --- |
| CD19 BRIDGE variant B23 (Fab) heavy: EVQLVESGGGLVKPGGSLKLSCAASGYTFTSYVMHWVRQAPGKGLEWIGYINPYNDGTKYNEKFQGRVTISSDKSISTAYMELSSLRSEDTAMYYCARGTYYYGTRVFDYWGQGTLVTVSSASTKGPSVFPLAPSSKSTSGGTAALGCLVKDYFPEPVTVSWNSGALTSGVHTFPAVLQSSGLYSLSSVVTVPSSSLGTQTYICNVNHKPSNTKVDKKVEPKSCHHHHHH light: DFPGHNYTTRNILPGLNITSTFHKTSGSGKGSEPKSSDKTHTDIVMTQSPATLSLSPGERATLSCRSSKSLQNVNGNTYLYWFQQKPGQSPQLLIYRMSNLNSGVPDRFSGSGSGTEFTLTISSLEPEDFAVYYCMQHLEYPITFGAGTKLEIKRTVAAPSVFIFPPSDEQLKSGTASVVCLLNNFYPREAKVQWKVDNALQSGNSQESVTEQDSKDSTYSLSSTLTLSKADYEKHKVYACEVTHQGLSSPVTKSFNRGEC | 14.8 | 2.34 | 2.39 | 6.82 | 4.4 | 3.1 | 5.3 |
| CD19 BRIDGE variant B24 (Fab) heavy: EVQLVESGGGLVKPGGSLKLSCAASGYTFTSYVMHWVRQAPGKGLEWIGYINPYNDGTKYNEKFQGRVTISSDKSISTAYMELSSLRSEDTAMYYCARGTYYYGTRVFDYWGQGTLVTVSSASTKGPSVFPLAPSSKSTSGGTAALGCLVKDYFPEPVTVSWNSGALTSGVHTFPAVLQSSGLYSLSSVVTVPSSSLGTQTYICNVNHKPSNTKVDKKVEPKSCHHHHHH light: DFPGHNYTTRNILPGLNITSTFHKTSGSGKGGGGSEPKSSDKTHTDIVMTQSPATLSLSPGERATLSCRSSKSLQNVNGNTYLYWFQQKPGQSPQLLIYRMSNLNSGVPDRFSGSGSGTEFTLTISSLEPEDFAVYYCMQHLEYPITFGAGTKLEIKRTVAAPSVFIFPPSDEQLKSGTASVVCLLNNFYPREAKVQWKVDNALQSGNSQESVTEQDSKDSTYSLSSTLTLSKADYEKHKVYACEVTHQGLSSPVTKSFNRGEC | 18.4 | 2.13 | 2.47 | 8.45 | 3.9 | 3.21 | 4.8 |
| CD19 BRIDGE variant B28 (Fab) heavy: EVQLVESGGGLVKPGGSLKLSCAASGYTFTSYVMHWVRQAPGKGLEWIGYINPYNDGTKYNEKFQGRVTISSDKSISTAYMELSSLRSEDTAMYYCARGTYYYGTRVFDYWGQGTLVTVSSASTKGPSVFPLAPSSKSTSGGTAALGCLVKDYFPEPVTVSWNSGALTSGVHTFPAVLQSSGLYSLSSVVTVPSSSLGTQTYICNVNHKPSNTKVDKKVEPKSCHHHHHH light: DFPGHNYTTRNILPGLNITSTFHKTSGSGKEPKSSDKTHTGSDIVMTQSPATLSLSPGERATLSCRSSKSLQNVNGNTYLYWFQQKPGQSPQLLIYRMSNLNSGVPDRFSGSGSGTEFTLTISSLEPEDFAVYYCMQHLEYPITFGAGTKLEIKRTVAAPSVFIFPPSDEQLKSGTASVVCLLNNFYPREAKVQWKVDNALQSGNSQESVTEQDSKDSTYSLSSTLTLSKADYEKHKVYACEVTHQGLSSPVTKSFNRGEC | 19.1 | 2.24 | 2.38 | 8.78 | 4.2 | 3.09 | 5.1 |
